# Target: T1, NGF (nerve growth factor) (human, UniProt P01138 P01138:122-241)
# Experiment: cell_activity; neurite outgrowth, NGF 1.1 nM; SPR binding
# Conditions: tags: amine-coupled to CM5 chip in SPR; soluble in cell assays; chain copies: 2
# Protocol: (§1) The neurite outgrowth inhibitory activity of the aptamer obtained in Example 1 was evaluated by using Neuroscreen-1 cell, which is a subclone of PC-12 cells.
# (§2) The cells (2500 cells per well) were cultured for one day in an RPMI-1640 medium containing 2.5% horse serum and 1.25% fetal bovine serum in a 96 well flat-bottom plate coated with collagen type IV. […] Two days later, the cytoplasm and nuclei were stained using Cellomics Neurite Outgrowth Kit (manufactured by Thermo Scientific), and neurite length per cell was measured by Cellomics ArrayScan VTI (manufactured by Thermo Scientific). With the neurite length per cell obtained by the addition of NGF alone as inhibitory activity 0%, and that of the cell obtained by NGF free culture for 2 days as inhibitory activity 100%, the inhibitory activity of the aptamer was calculated from the neurite length per cell obtained by culturing with the addition of NGF and the aptamer in mixture. When the inhibitory activity was 0% or below, ‘0%’ is indicated.
# T1 sequence (P01138 122-241, one chain of several): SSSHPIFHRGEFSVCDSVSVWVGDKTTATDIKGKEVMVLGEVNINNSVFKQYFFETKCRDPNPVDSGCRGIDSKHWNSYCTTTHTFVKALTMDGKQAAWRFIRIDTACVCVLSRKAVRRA
row,Binder,IC50 [nM]
1,"aptamer ID 16 (ssRNA, 2'-F at all pyrimidines) RNA: GGGAGAACUUCGCCAGAAGUUUGAAAGAAACCCAAAUUAAAAAGAUGUGCGCAUCA",1.1
2,"aptamer ID 41 (ssRNA, 2'-F at all pyrimidines) RNA: GGGAGAACUUCGACCAGAAGUCGAUAACGAACAAAACUCCCAAAGGUAAUGUGCGCAUACA",< 3
3,"aptamer ID 39 (ssRNA, 2'-F at all pyrimidines) RNA: GGGAGAACUUCGACCAGAAGUCGAUAACGAACAAAACUCCCAAAGGAAAUGUGCGCAUACA",< 3
4,"aptamer ID 11 (ssRNA, 2'-F at all pyrimidines) RNA: GGGAGAACUUCGCCAGAAGUUUGAAAGAAACCCAAAUAAAAAGUAUGUGCGCAUACA",1.5
5,"aptamer ID 12 (ssRNA, 2'-F at all pyrimidines) RNA: GGGAGAACUUCGCCAGAAGUUUGAAAGAAACCCAAAUUAAAAGUAUGUGCGCAUACA",1.4
6,"aptamer ID 14 (ssRNA, 2'-F at all pyrimidines) RNA: GGGAGAACUUCGCCAGAAGUUUGAAAGAAACCCAAUUAAAAAGUAUGUGCGCAUACA",1.2
7,"aptamer ID 18 (ssRNA, 2'-F at all pyrimidines) RNA: GGGAGAACUUCGCCAGAAGUUUGAAAGAAACCCAAAUAAAGAUGUGCGCAUCA",< 10
8,"aptamer ID 44 (ssRNA, 2'-F at all pyrimidines) RNA: GGGAGAACUUCGACCAGAAGUCGAUAACGAACAAAACUCCCAAAGGAUGUGCGCAUACA",< 3
9,"aptamer ID 45 (ssRNA, 2'-F at all pyrimidines) RNA: GGGAGAACUUCGACCAGAAGUCGAUAACGAACAAAACUCCCAAAUAAUGUGCGCAUACA",< 3
10,"GGGAUAAAAAUAGAGUUUGATAAACACCUGUAUTAAAACCC (mixed, 5' cholesterol; 3' idT; 2'-F pyrimidines (except dT at 21,34) and a37,a38; 2'-OMe other purines except 2'-OH at 4,7,30) [aptamer ID 58]",5.4
11,"GGGAUAAAAAUAGAGUUUGATAAACACCUGUAUUAAAACCC (mixed, 5' cholesterol; 3' idT; 2'-F pyrimidines (except dT at 21 and dC at 41) and a37,a38; 2'-OMe other purines except 2'-OH at 4,7,30) [aptamer ID 59]",6.9
12,"aptamer ID 47 (ssRNA, 2'-F at all pyrimidines) RNA: GGGAGAACUUCGACCAGAGUCGAUAACGAACAAAACUCCCAAAUAUGUGCGCAUACA",2.5
13,"aptamer ID 46 (ssRNA, 2'-F at all pyrimidines) RNA: GGGAGAACUUCGACCAGAAGUCGAUAACGAACAAAACUCCCAAAUAUGUGCGCAUAC",2.6
14,"aptamer ID 40 (ssRNA, 2'-F at all pyrimidines) RNA: GGGAGAACUUCGACCAGAAGUCGAUAACGAACAAAACUCCCAAAUAUAUGUGCGCAUACA",< 3
15,"aptamer ID 42 (ssRNA, 2'-F at all pyrimidines) RNA: GGGAGAACUUCGACCAGAAGUCGAUAACGAACAAAACUCCCGGAAUAAUGUGCGCAUACA",< 3
16,"aptamer ID 9 (ssRNA, 2'-F at all pyrimidines) RNA: GGGAGAACUUCGACCAGAAGUUUGAAAGAAACCCAAAUUAAAAAGAUGUGCGCAUCA",< 3
17,"aptamer ID 17 (ssRNA, 2'-F at all pyrimidines) RNA: GGGAGAACUUCGCCAGAAGUUUGAAAGAAACCCAAAUUAAAGAUGUGCGCAUCA",< 1
18,"aptamer ID 13 (ssRNA, 2'-F at all pyrimidines) RNA: GGGAGAACUUCGCCAGAAGUUUGAAAGAAACCCAAAUUAAAGUAUGUGCGCAUACA",1.3
19,"aptamer ID 15 (ssRNA, 2'-F at all pyrimidines) RNA: GGGAGAACUUCGCCAGAAGUUUGAAAGAAACCCAUUAAAAAGUAUGUGCGCAUACA",1.9
20,"aptamer ID 51 (ssRNA, 2'-F at all pyrimidines) RNA: GGAGAACUUCGACCAGAGUCGAUAACGAACAAAACUCCAAAUAUGUGCGCAUAC",2.7
21,"aptamer ID 49 (ssRNA, 2'-F at all pyrimidines) RNA: GGGAGAACUUCGACCAGAAGUCGAUAACGAACAAAACUCCCAAUAUGUGCGCAUACA",1.8
22,"aptamer ID 50 (ssRNA, 2'-F at all pyrimidines) RNA: GGGAGAACUUCGACCAGAGUCGAUAACGAACAAAACUCCCAAUAUGUGCGCAUAC",2.6

# Target: T1, NGF (nerve growth factor)
# Experiment: cell_activity; neurite outgrowth, NGF 1.1 nM; SPR binding; blocks NGF-TrkA
# Conditions: tags: amine-coupled to CM5 chip in SPR; soluble in cell assays; chain copies: 2
# Protocol: as §1, §2
row,Binder,IC50 [nM]
1,"aptamer ID 38 (ssRNA, 2'-F at all pyrimidines) RNA: GGGAGAACUUCGACCAGAAGUCGAUAACGAACAAAACUCCCAAAGGAAUAUAUGUGCGCAUAC",< 3
2,"aptamer ID 37 (ssRNA, 2'-F at all pyrimidines) RNA: GGGAGAACUUCGACCAGAAGUCGAUAACGAACAAAACUCCCGGAAUAUAUGUGCGCAUACA",< 3
3,"aptamer ID 53 (ssRNA, 2'-F at all pyrimidines) RNA: GGGAGAACUUCGACCAGAGUCGAGAGCGAAAGAAACUCCCAAAUAUGUGCGCAUAC",4.7
4,"aptamer ID 34 (ssRNA, 2'-F at all pyrimidines) RNA: GGGAGAACUUCGACCAGAAGUCGAUAACGAACAAAACUCCCAAAGGAAUAUGUGCGCAUACA",< 3
5,"aptamer ID 36 (ssRNA, 2'-F at all pyrimidines) RNA: GGGAGAACUUCGACCAGAAGUCGAUAACGAACAAAACUCCCAAAAAUAUAUGUGCGCAUACA",< 3
6,"aptamer ID 35 (ssRNA, 2'-F at all pyrimidines) RNA: GGGAGAACUUCGACCAGAAGUCGAUAACGAACAAAACUCCCAAAGGUAUAUGUGCGCAUACA",< 3
7,"aptamer ID 54 (ssRNA, 2'-F at all pyrimidines) RNA: GGGAGAACUUCGACCAGAAGAUUUGAAAAAAACCCAAAUUAAAGUAUGUGCGCAUACA",3
8,"aptamer ID 31 (ssRNA, 2'-F at all pyrimidines) RNA: GGGAGAACUUCGACCAGAAGUCGAUAACGAACAAAACUCCCAAAGGAAUAUAUGUGCGCAUACAUGGAU",< 3
9,"aptamer ID 4 (ssRNA, 2'-F at all pyrimidines) RNA: GGGAGAACUUCGACCAGAAGUUUGAAAGAAACCCAAAUUAAAGUGAACAGUAUGUGCGCAUACUGGAUCCUCA",< 3
10,"aptamer ID 6 (ssRNA, 2'-F at all pyrimidines) RNA: GGGAGAACUUCGACCAGAAGUUUGAAAGAAACCCAAAAAAGUGAACAGUAUGUGCGCAUACA",< 3
11,"aptamer ID 33 (ssRNA, 2'-F at all pyrimidines) RNA: GGGAGAACUUCGACCAGAAGUCGAUAACGAACAAAACUCCCAAAGGAAUAUAUGUGCGCAUACAUGGAUCCU",< 3
12,"aptamer ID 8 (ssRNA, 2'-F at all pyrimidines) RNA: GGGAGAACUUCGACCAGAAGUUUGAAAGAAACCCAAAUUAAAGUGAACAGAUGUGCGCAUCA",< 3
13,"aptamer ID 3 (ssRNA, 2'-F at all pyrimidines) RNA: GGGAGAACUUCGACCAGAAGUUUGAAAGAAACCCAAAUUAAAGGAACAGUAUGUGCGCAUACAUGGAUCCUCA",< 3
14,"aptamer ID 2 (ssRNA, 2'-F at all pyrimidines) RNA: GGGAGAACUUCGACCAGAAGUUUGAAAGAAACCCAAAUUAAAGUGAAGUAUGUGCGCAUACAUUCCUCA",< 3
15,"aptamer ID 5 (ssRNA, 2'-F at all pyrimidines) RNA: GGGAGAACUUCGACCAGAAGUUUGAAAGAAACCCAAAUUAAAAACAGUAUGUGCGCAUACA",< 3
16,"aptamer ID 7 (ssRNA, 2'-F at all pyrimidines) RNA: GGGAGAACUUCGACCAGAAGUUUGAAAGAAACCCAAAUUAAAGGAAGUAUGUGCGCAUACA",< 3
17,"aptamer ID 52 (ssRNA, 2'-F at all pyrimidines) RNA: GGGAGAACUUCGACCAGAAGUUUGAAAAAAACCCAAAUUAAAGUAUGUGCGCAUACA",5.9

# Target: T1, NGF (nerve growth factor)
# Experiment: cell_activity; neurite outgrowth, NGF 0.38 nM; not tested by SPR; TF-1 IC50 <0.1 nM
# Conditions: tags:; soluble in cell assays; chain copies: 2
# Protocol: as §1, §2
row,Binder,IC50 [nM]
1,"GGGAGACUCGCCAGAGUUGAAAGAAACCCAAAUAAGUGUGCGCAC (ssRNA, 2'-F pyrimidines; 2'-OMe purines except 2'-OH at 3,5,19-22,24,26; 5' PEG40GS2 (ssH linker); 3' idT) [aptamer ID 26(16)]",< 0.1

# Target: T1, NGF (nerve growth factor)
# Experiment: cell_activity; neurite outgrowth, NGF 1.1 nM; SPR binding; TF-1 IC50 <1.0 nM
# Conditions: tags: amine-coupled to CM5 chip in SPR; soluble in cell assays; chain copies: 2
row,Binder,IC50 [nM]
1,"GGGAGACUCGCCAGAGUUGAAAGAAACCCAAAUAAGUGUGCGCAC (ssRNA, 2'-F pyrimidines; 2'-OMe at 36,38,40,42,44; other purines 2'-OH) [aptamer ID 26(6)]",< 1
2,"GGGAGAACUUCGCCAGAAGUUUGAAAGAAACCCAAAUAAGUGUGCGCAC (ssRNA, 2'-F at all pyrimidines) [aptamer ID 24]",< 1
3,"GGGAGAACUUCGCCAGAAGUUUGAAAGAAACCCAAAUAAGUGUGCGCACA (ssRNA, 2'-F at all pyrimidines) [aptamer ID 23]",< 1
4,"aptamer ID 20 (ssRNA, 2'-F at all pyrimidines) RNA: GGGAGAACUUCGCCAGAAGUUUGAAAGAAACCCAAAUAAAGUGUGCGCACA",1
5,"GGGAGACUCGCCAGAGUUGAAAGAAACCCAAAUAAAGUGUGCGCACA (ssRNA, 2'-F at all pyrimidines) [aptamer ID 25]",< 1
